Data: US20240352110A1 (ROCHE DIAGNOSTICS OPERATIONS, published 2024)

Target: T1, Aβ42 (human, UniProt P05067 672-713)
T1 construct: range 672-713; In the Elecsys experiments it is the native Aβ42 of the plasma sample; also called Ab42; Abeta42
Experiment: SPR (Biacore 8K+), antibody captured, Aβ42 injected, 37° C., Langmuir 1:1 fit
Method: Measurements were performed using the BIAcore™ 8K+ instruments. Aβ-42 concentration series ranging from 1.2 nM to 900 nM were injected at […]. The association phase was monitored for 3 min, the dissociation phase between 5 min to 10 min at 37° C.
The measurements were performed using PBS-DT+, pH7.4 (10 mM phosphate buffer, 2.7 mM KCl, 137 mM NaCl. 5% DMSO, 0.05% Tween 20) as running buffer.
The kinetic rate constants and the dissociation equilibrium constants KD were calculated using a Langmuir 1:1 fit model according Scrubber Version 2.0.c.

T1 sequence (P05067 672-713 limits assumed, form in doubt): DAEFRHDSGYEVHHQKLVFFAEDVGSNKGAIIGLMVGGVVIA

B1: Mouse anti Aβ-42 antibody 3.2.52 (IgG2b), expressed in hybridoma (antibody)
heavy: EVQLQQSGPELVKLGASVRVSCRTSGFTITEYTMHWVKQSHGKSLEWIGGINPITGGSRNNLKFKDKATLTGDKSSSTVYMDLRSLTSEGSTVNYCVRGRTMGPLDYWGQGTTLTVSSAKTTPPSVYPLAPGCGDTTGSSVTLGCLVKGYFPESVTVTWNSGSLSSSVHTFPALLQSGLYTMSSSVTVPSSTWPSQTVTCSVAHPASSTTVDKKLEPSGPISTINPCPPCKECHKCPAPNLEGGPSVFIFPPNIKDVLMISLTPKVTCVVVDVSEDDPDVRISWFVNNVEVHTAQTQTHREDYNSTIRVVSALPIQHQDWMSGKEFKCKVNNKDLPSPIERTISKIKGLVRAPQVYILPPPAEQLSRKDVSLTCLVVGFNPGDISVEWTSNGHTEENYKDTAPVLDSDGSYFIYSKLDIKTSKWEKTDSFSCNVRHEGLKNYYLKKTISRSPGK
light: not shown
notes: Full-length mouse IgG2b; Biotinylated when used as capture antibody in Elecsys assays; also called M-3.2.52; clone 3.2.52
In the case of B1, the Kd is reported as 6.7 nM, the “MR (molar ratio)” value is reported as 0.7 and the koff is reported as 0.0253 s⁻¹. For the same binder, the kon was 3.8e+06 M⁻¹ s⁻¹ and the “t/2 diss (complex half-life)” value was < 1 min.
